# In the supplement of paper PMC12764529:
# ± gives the half width of the 95% confidence interval.
# Test: folding stability dG unfold from chymotrypsin proteolysis; higher = more stable
# Method in brief: (§1)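 Designed mini-proteins with no cysteine and under 80 residues were kept only if AlphaFold2 dimer inter-PAE was above 15. In a PA-tagged cDNA display construct, they were digested with trypsin and chymotrypsin and then sequenced. K50 was inferred by Bayesian fitting of counts, and unfolding free energy was derived per protease or combined against a sequence-predicted unfolded-state K50 and a shared folded-state K50.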
row,Sequence,folding stability dG unfold [kcal/mol]
1,SAGKLVLKPGETVEIGDMTIHFHPDGRVSATFPDGRSAAIRVTVDTDTDVVGFEFVEEHPDVGHTDAPGSAG [r5_33_TrMRF],1.12 ± 0.057
2,SAGGSAGGESSRLVAVFKFPPSNPNIKTSISFPSLPKSAKISESQAPFGNEYYLVVVIEVPKNSSAGGSAGG [r6_480_TrMRF],3.88 ± 0.14
3,SAGLKVESQTYDPATGTATVTPPLEGVPPDYTITVTDTATGKKTTLPPDGDVTLSNPTGPVTVTLTRPASAG [r14_134_JUSTAS],0.354 ± 0.093
4,SAGGSAGGSKAEVFETPDGLVVVVVPTEDSVRAFVFFPDGYIAEFDFPTGKIVRIFSPDEEIASAGGSAGGS [r12_235_TrMRF],3.55 ± 0.052
5,SAGGSAGGSAGMIKIEETVVLPDGTVVRKEKEIEPPNGKTTTLKTETVPVLSPGSESLLLSAGGSAGGSAGG [r11_919_JUSTAS],0.313 ± 0.074
6,SAGGSAGGSAKPKPVETVEVTVTGKDGKKYKVTVVYDEKTGKLYVKYNGKIYKVDSLEEALKSAGGSAGGSA [r18_67_TrROS_Hall],4.12 ± 0.073
7,SAGMVVENPGTETRVVFDPETGELYVEVGDKVYRIPLPPGVEVEFEVDPEAGTIRVYFPNTGEVLELPLSAG [r5_858_TrMRF],3.38 ± 0.042
8,SAGGSAGGSYKIDKIEVQPPPGGYYQATIEVEQVDPENGNPQRQEQEIPVPANDPKQIKDFLKSAGGSAGGS [r12_691_TrROS],0.379 ± 0.16
9,SAGGSAGGSAGGKTIRFKAKSPEEIAEKIKKGEEILTPDGKPVKITKVEPLPDGSVLITGSAGGSAGGSAGG [r11_48_TrMRF],0.588 ± 0.18
10,SAGGMEVREIDVENEDGHNVKIEIWWMPGEGWIMVKIEGPNPALIDDIQKEIGLPILEVMKDGYLMIKSAGG [r13_937_TrROS],2.6 ± 0.033
11,SAGGSAGGSAGKKKVLMTVDEIEKKLGKKIKPGSLVLVEVENGKVKKIEIFDVKKKPKKKSAGGSAGGSAGG [r11_616_TrROS_Hall],1.07 ± 0.076
12,SAGDEIEEKVKEILEKLNPDEPVVIKRTKDGRILAENPKTGKFIIFDISPDGTIKIVKVVPAEEAKKLGSAG [r5_852_TrMRF],2.52 ± 0.071
13,KTVMIMFKNPEQILNQLREARDDGKTVSIMFPDEWINELKNLGFKIDKITDVQPMPGNDSYMVEIKIKPKDS [r1_173_TrROS],2.31 ± 0.12
14,SAGGSAGGKPIWEFELEFPDGYKIRITYWPGYVRVEIHNPDGRQLEVNVPGKSPEDALDALLDASAGGSAGG [r6_459_TrROS],4.19 ± 0.19
15,SATAVVIKAEVIFPNNEKKEISVVIENLTEEEVEELAEELEKKIKEEAGIPDIEVKIKVETFAKDDPAFSAG [r14_207_TrMRF],1.01 ± 0.09
16,SAGGLLPALLAPGFRKPPELPLVVVEAPIEEAVALAKENPSLGVLLVRVGGKLYLIDPKTGKVAPLGSAGGS [r16_214_TrMRF],1.6 ± 0.033
17,SAGGSAGGSASITYENGYATITLKVPEGTVRIVDLATNEVIEIKPGDTVTIRVKIPPPPPESAGGSAGGSAG [r3_185_TrROS_Hall],1.55 ± 0.059
18,SAGGSAGGGMTAEELAAKAIEEALKAGETVTVEIEVTNPNGETFTLELTLVVVDPDDPEALEALSAGGSAGG [r6_534_TrROS_Hall],1.29 ± 0.014
19,SAGMKKVIELTIPVTGPEEVEELVAKLEEEEPAVPVERRPDPRLGAVRVVVEKKFPDSIVYITLTAAASAGG [r19_262_JUSTAS],0.496 ± 0.071
20,SAGGSAGGKWIHINPNSYNIKIQDPGSGKEEEIQFDSPEELIDEIKKQFPGVPVEIHPNGWFKISAGGSAGG [r6_288_TrROS],0.563 ± 0.11
21,SAGGSAGGSAGKKIPKKIIPKINLKVELVKSKIYYDKKKKKIVKIEYEFKITYPNGFKATSAGGSAGGSAGG [r11_890_TrMRF],1.97 ± 0.11

# Test: folding stability dG unfold (combined trypsin and chymotrypsin); higher = more stable
# Method in brief: as §1
row,Sequence,folding stability dG unfold [kcal/mol]
1,SAGGSAGGSAGMRPVTSVYYDPNTGRLYARFPDGVVANYELTPDGSVRLVSVAPAHPDLDSAGGSAGGSAGG [r17_61_TrMRF],1.42 ± 0.066
2,SAGKWVTIEIPIYIPGNPSQLKDLVEEIANILAAHGMKINVDVEVYPVDDYYIVKITVTVRMPPGMPIISAG [r5_217_TrROS],3.41 ± 0.19
3,SAGGMVIVFPAPKDISPDELRELIEAEVGPLAEELGLTEASIPIAKVEELPEGSRRVVAVIELRFDGSAGGS [r8_184_TrMRF],0.718 ± 0.056
4,SAATLPPGTKVLTLTVTVRVPPGVSVEDLAAALAAELRRRLGPGAKITVTVTYDPETDTLTVTVTVVLPPSA [r9_657_TrROS_Hall],4.38 ± 0.081
5,SAGGSAGPPKPGKIELEFEDPSGGKKYKVDIYIYPNNEVKTKALNPDGTPIPEEEIKKILKKLGLKSAGGSA [r15_872_JUSTAS],1.29 ± 0.26
6,SAGGSPERSAEELAEELAERIRELLREEAASFELPLHVHIVVPDPEGRRREFDVEVHVRVEVPEDARSAGGS [r16_550_TrMRF],1.05 ± 0.054
7,SAGGSAMVSLEEAKEATLREVKAALGFSPDATPEELRARGVPVRVPITVRDEKGNVIAELELELPGSAGGSA [r15_391_JUSTAS],0.37 ± 0.039
8,SAGGSAGGSAGGSKKYFFKIKKIKVETKLEVNEDGSLTEEKKIEIEIELRELPSLEDLLSAGGSAGGSAGGS [r4_450_TrROS_Hall],4.16 ± 0.2
9,SAGGMFKVYEVTGKDAKVTIVEAPLPDGGKLVVVEVWEGGKPVKPFLVPVAELEEIAKAIGIKPEELKSAGG [r13_108_TrMRF],1.58 ± 0.14
10,SAGGSAGGEEAPPPPVTVTVTIEVEENEDGTLTVRIEVRDEATGETRTITVTMTLEELEELAKASAGGSAGG [r6_995_TrROS_Hall],2.78 ± 0.22
11,SAGGSAGGSAGGLVLTSTSFTSSNTMVVTTTTLTTNADGSLSTTSTTTTTPVPPPKPGLPSAGGSAGGSAGG [r11_728_JUSTAS],0.443 ± 0.077
12,SAGGSAGGSAGSPVVTTEKVKTEGNTTVYRVTEPALNTETLVTEDAGANPTIKTTTYNTPSAGGSAGGSAGG [r11_738_JUSTAS],-0.747 ± 0.24
13,SAGGSADKITVRVMPSPDGMYRVKIWHPGKKREYWMNPDDPDKMLEEFADEINPDRPIKVEVEPYKSAGGSA [r15_925_TrROS],0.467 ± 0.18
14,GLTVTLDGNSLTVTADAGDKTVTVTAPVFHPEKGLVTVVTVTATREDGALVLHTESRTIRLPPLPPLHPDLS [r1_100_TrMRF],3.59 ± 0.43
15,SAGGSAGGSLVLPDDYKVIVREFDLSDVGRAVREVMEEFDVKDALFLAVPLPGKVLLFVVVKESAGGSAGGS [r12_929_TrMRF],2.99 ± 0.21
16,SAGGSAGGSKPEYVLRVKIYNEETGELVEEIEITVKSKEEALKALKKLLPKDNVKIEVEILPPSAGGSAGGS [r12_578_TrROS_Hall],3.2 ± 0.17
17,SAGGSAGGSAGEKTLKIVADSEEEAEALAKELAEKYNLEVTIERNPEEEGKYVITIKIKPSAGGSAGGSAGG [r11_797_TrROS_Hall],3.17 ± 0.17
18,SAGGEAEVVARAEVTLPDGVKVEVEVVRVDGKLVVRVRVEVRLPPPPPPPPPPLPPLSEEERKKLAEASAGG [r13_760_TrROS_Hall],2.18 ± 0.22
19,SAGGSASSSLEVEVTAESPDPETGELRVTAVITTTYFDPSTGSTSTTTTTLTLTPEELAALVAALSSAGGSA [r2_357_JUSTAS],4.332 ± 0.043
20,SAGGKTIEIEVKVPPGMTEEEVAKKLAEELAKELEKKTGKEIKIEIEKVEKLPNGERKVRIKIEVKPSAGGS [r8_156_TrROS_Hall],1.74 ± 0.2
21,SAGGSAGGSMLTIEKPMPGTTEEEALEYAEELKEKNPNYKIEVEIEKTEEGYLTVKIKLTKKESAGGSAGGS [r12_425_JUSTAS],0.972 ± 0.24

row,Sequence,folding stability dG unfold [kcal/mol]
1,SAGKLVLKPGETVEIGDMTIHFHPDGRVSATFPDGRSAAIRVTVDTDTDVVGFEFVEEHPDVGHTDAPGSAG [r5_33_TrMRF],1.47 ± 0.11
2,SAGGSAGGESSRLVAVFKFPPSNPNIKTSISFPSLPKSAKISESQAPFGNEYYLVVVIEVPKNSSAGGSAGG [r6_480_TrMRF],3.37 ± 0.16
3,SAGLKVESQTYDPATGTATVTPPLEGVPPDYTITVTDTATGKKTTLPPDGDVTLSNPTGPVTVTLTRPASAG [r14_134_JUSTAS],0.277 ± 0.074
4,SAGGSAGGSKAEVFETPDGLVVVVVPTEDSVRAFVFFPDGYIAEFDFPTGKIVRIFSPDEEIASAGGSAGGS [r12_235_TrMRF],3.27 ± 0.079
5,SAGGSAGGSAGMIKIEETVVLPDGTVVRKEKEIEPPNGKTTTLKTETVPVLSPGSESLLLSAGGSAGGSAGG [r11_919_JUSTAS],0.461 ± 0.067
6,SAGGSAGGSAKPKPVETVEVTVTGKDGKKYKVTVVYDEKTGKLYVKYNGKIYKVDSLEEALKSAGGSAGGSA [r18_67_TrROS_Hall],3.86 ± 0.2
7,SAGMVVENPGTETRVVFDPETGELYVEVGDKVYRIPLPPGVEVEFEVDPEAGTIRVYFPNTGEVLELPLSAG [r5_858_TrMRF],3.63 ± 0.051
8,SAGGSAGGSYKIDKIEVQPPPGGYYQATIEVEQVDPENGNPQRQEQEIPVPANDPKQIKDFLKSAGGSAGGS [r12_691_TrROS],0.174 ± 0.22
9,SAGGSAGGSAGGKTIRFKAKSPEEIAEKIKKGEEILTPDGKPVKITKVEPLPDGSVLITGSAGGSAGGSAGG [r11_48_TrMRF],0.46 ± 0.081
10,SAGGMEVREIDVENEDGHNVKIEIWWMPGEGWIMVKIEGPNPALIDDIQKEIGLPILEVMKDGYLMIKSAGG [r13_937_TrROS],2.22 ± 0.091
11,SAGGSAGGSAGKKKVLMTVDEIEKKLGKKIKPGSLVLVEVENGKVKKIEIFDVKKKPKKKSAGGSAGGSAGG [r11_616_TrROS_Hall],1 ± 0.21
12,SAGDEIEEKVKEILEKLNPDEPVVIKRTKDGRILAENPKTGKFIIFDISPDGTIKIVKVVPAEEAKKLGSAG [r5_852_TrMRF],2.18 ± 0.19
13,KTVMIMFKNPEQILNQLREARDDGKTVSIMFPDEWINELKNLGFKIDKITDVQPMPGNDSYMVEIKIKPKDS [r1_173_TrROS],1.95 ± 0.2
14,SAGGSAGGKPIWEFELEFPDGYKIRITYWPGYVRVEIHNPDGRQLEVNVPGKSPEDALDALLDASAGGSAGG [r6_459_TrROS],3.88 ± 0.24
15,SATAVVIKAEVIFPNNEKKEISVVIENLTEEEVEELAEELEKKIKEEAGIPDIEVKIKVETFAKDDPAFSAG [r14_207_TrMRF],1.04 ± 0.3
16,SAGGLLPALLAPGFRKPPELPLVVVEAPIEEAVALAKENPSLGVLLVRVGGKLYLIDPKTGKVAPLGSAGGS [r16_214_TrMRF],1.32 ± 0.056
17,SAGGSAGGSASITYENGYATITLKVPEGTVRIVDLATNEVIEIKPGDTVTIRVKIPPPPPESAGGSAGGSAG [r3_185_TrROS_Hall],1.73 ± 0.18
18,SAGGSAGGGMTAEELAAKAIEEALKAGETVTVEIEVTNPNGETFTLELTLVVVDPDDPEALEALSAGGSAGG [r6_534_TrROS_Hall],1.49 ± 0.05
19,SAGMKKVIELTIPVTGPEEVEELVAKLEEEEPAVPVERRPDPRLGAVRVVVEKKFPDSIVYITLTAAASAGG [r19_262_JUSTAS],0.677 ± 0.065
20,SAGGSAGGKWIHINPNSYNIKIQDPGSGKEEEIQFDSPEELIDEIKKQFPGVPVEIHPNGWFKISAGGSAGG [r6_288_TrROS],0.521 ± 0.091
21,SAGGSAGGSAGKKIPKKIIPKINLKVELVKSKIYYDKKKKKIVKIEYEFKITYPNGFKATSAGGSAGGSAGG [r11_890_TrMRF],1.83 ± 0.2
